The text below walks through data of US10208121B2, “Anti-Axl antagonistic antibodies” (BERGEN TEKNOLOGIOVERFORING AS, priority 2014, dated 2019).

Test [1] has as its target T1, Axl receptor protein (Homo sapiens, UniProt P30530).
T1 construct: endogenous in cells; host or cells: MDA-MB-231
Briefly: Western blot analysis of Axl receptor protein expression after antibody treatment. In kind it is cell-based. The conditions noted are these: MDA-MB-231 cells, 100 μg/mL, 20 hrs, versus irrelevant IgG or MAb#3. Here is the method:
Western blot analysis illustrating effect of treatment with either antibodies of multikinase inhibitor Foretinib on Axl receptor expression. Highly aggressive human mammary carcinoma cells MDA-MB-231 were treated with either antibodies (irrelevant IgG control and anti-Axl MAbs 10C9, 10G5 and MAb#3) or Foretinib for […] before loading on SDS-PAA gel. The levels of actin protein were used as loading controls.
The expression of Axl receptor protein in MBA-MD-231 cells treated with different antibodies was examined by Western blot analysis. The cells were seeded in a 6-well plate at density of 5×10^5 cells per well and cultured overnight before treatment initiation. The cells were treated for 20 hrs in the presence of isotype control (mouse IgG2b), anti-Axl antibodies (10C9, 10G5 and MAb#3) at concentrations of 100 μg/mL or multikinase inhibitor Foretinib (targets Met, Ron, Axl, Tie-2, and VEGFR2) at a concentration of 0.5 μM followed by harvesting by centrifugation at 1,200 rpm for 5 min and washing with sterile PBS. The cells were collected by centrifugation and resuspended in NP40-lysis buffer followed by 30 min incubation on ice. The cell lysates were cleared by centrifugation (12,000 rpm, 4° C., 5 min) and the protein concentrations were determined using BCA protein assay. […]
On the technique in general: A western blot detects proteins with antibodies after separation by electrophoresis.

Test [2] has as its system Mv4-11 tumours. Briefly: Mv4-11 AML xenograft in nude mice. In kind it is in vivo, mouse. Here is the method: Inhibition of Mv4-11 xenograft tumour growth by the chimeric antibody 10G5. The antibody was administrated intraperitoneally at 30 mg/kg, twice a week, starting when the mean tumour size reached 200 mm^3. Tumour growth curves for the groups treated with either vehicle (sterile PBS) or chimeric 10G5 are shown. Error bars represent standard error of the mean (SEM). Statistical analysis was performed using two-way ANOVA. *, P<0.05; **, P<0.01; ****, P<0.0001.
To evaluate the anti-tumour activity of anti-Axl chimeric antibodies in a model of haematological cancer, we used a mouse xenograft model of human acute myeloid leukaemia (AML). The human AML Mv4-11 cells (ATCC # CRL-9591) cells were propagated in suspension in IMDM medium supplemented with 10% FBS, 2 mM L-Glutamine, 100 U/ml penicillin and 100 μg/ml streptomycin. Nude mice were implanted s.c. into the flank with 5×10^6 Mv4-11 cells resuspended in the mixture of serum-free IMDM medium and Matrigel (1:1). When the tumour size reached 200 mm^3 (Day 0 in FIG. 15), the animals were randomized and treated with either vehicle (sterile PBS) or anti-Axl chimeric antibody 10G5 at 30 mg/kg, by i.p. injections twice weekly for 4 weeks.

Test [3] deals with A549 tumours. As to the kind of experiment: A549 NSCLC xenograft in nude mice. It is filed as in vivo, mouse. Here is the method:
Inhibition of A549 xenograft tumour growth by chimeric antibody 10G5. The antibody was administrated intraperitoneally at 20 mg/kg, twice a week, starting when the mean tumour size reached 100 mm^3. Tumour growth curves for the groups treated with either vehicle (sterile PBS) or chimeric 10G5 are shown. Error bars represent standard error of the mean (SEM). Statistical analysis was performed using two-way ANOVA. **, P<0.01.
To evaluate the anti-tumour activity of anti-Axl chimeric antibodies in vivo, we used a mouse xenograft model of human non-small cell lung cancer (NSCLC). The human NSCLC A549 cells (ATCC #CCL-185) A549 cells were propagated in vitro as a monolayer culture in DMEM medium supplemented with 10% FBS, 2 mM L-Glutamine, 100 U/ml penicillin and 100 μg/ml streptomycin, 0.01M HEPES buffer, 0.45% D-(+)-glucose, 1 mM sodium pyruvate. Nude mice were implanted subcutaneously (s.c.) into the flank with 5×10^6 A549 cells resuspended in serum-free medium/Matrigel (1:1). When the tumour size reached 100 mm^3 (Day 0 in FIG. 14), the animals were randomized and treated with either vehicle (sterile PBS) or anti-Axl chimeric antibody 10G5 at 20 mg/kg, by intraperitoneal (i.p.) injections twice weekly for 4 weeks.

B1: 10G5: mouse anti-Axl monoclonal antibody from hybridoma WR-10G5-E5, IgG1; VH SEQ ID NO: 21, VL SEQ ID NO: 22 (antibody, listed as Mus musculus, V domains shown)
VH: QVQLQQSGAELVRPGASVKLSCKASGYSFTDFYINWVRQRPGQGLEWIARIFPGGDNTYYNEKFKGKATLTAEESSSTAYIQLSSLTSEDSAVYFCARRGLYYAMDYWGQGISVTVSS
VL: DVLMTQTPLSLPVSLGDQASISCRSSQSLVHSNGIPYLHWYLQKPGQSPKLLIYRVSNRFSGVPDRFSGSGSGTDFTLKISRVEAEDLGVYFCSQGTHVPPTFGGGTKLEIK
As to B1, in test [1], the “Axl protein level (Western blot)” value was “significant reduction of Axl protein”.

B2: c10G5: chimeric (mouse variable/human constant) IgG1 variant of antibody 10G5 (antibody)
heavy: QVQLQQSGAELVRPGASVKLSCKASGYSFTDFYINWVRQRPGQGLEWIARIFPGGDNTYYNEKFKGKATLTAEESSSTAYIQLSSLTSEDSAVYFCARRGLYYAMDYWGQGISVTVSS
light: DVLMTQTPLSLPVSLGDQASISCRSSQSLVHSNGIPYLHWYLQKPGQSPKLLIYRVSNRFSGVPDRFSGSGSGTDFTLKISRVEAEDLGVYFCSQGTHVPPTFGGGTKLEIK
modifications: left off: a dimerising Fc or GST
notes: chimeric (mouse variable/human constant) IgG1 variant of antibody 10G5
In the case of B2, in test [2] (30 mg/kg i.p. twice weekly for 4 weeks, P<0.0001, two-way ANOVA), the “growth of Mv4-11 tumours compared with the control” value is “extremely significantly attenuated growth of Mv4-11 tumours”. The “inhibition of tumour growth” value was “around 75%” in test [2] (30 mg/kg i.p. twice weekly, after three weeks of treatment, versus vehicle (PBS)) and “around 40%” in test [3] (20 mg/kg i.p. twice weekly, after four weeks of treatment, versus vehicle (PBS)). The “growth of A549 tumours compared with the control” value in test [3] (20 mg/kg i.p. twice weekly for 4 weeks, P<0.01, two-way ANOVA) is listed as “significantly attenuated growth of A549 tumours”.

B3: 10C9: mouse anti-Axl monoclonal antibody from hybridoma UT-10C9-B9, IgG2b; VH SEQ ID NO: 3, VL SEQ ID NO: 4 (antibody, listed as Mus musculus, V domains shown)
VH: QVQLQQPGPELVKPGASVKISCKTSDYNFTRYYIHWVKQRPGQGLEWIGWIYPGTGDSKYNEKFKGRATLTADTSSSTAYMQLSSQTSEDSAVYFCARNGNYWYFDVWGAGTAVTVSS
VL: DIVMTQAAPSGPVTPGESVSISCRSSKSLLHSNGNTYLYWFLQRPGQSPQLLIYRMSNLASGVPDRFSGSGSGTAFTLRISRVEAEDVGIYYCMQHREYPFTFGGGTKLEIK
For the molecule B3, the “Axl protein level (Western blot)” value in test [1] is given as “significant reduction in the amount of Axl receptor protein”.
